Test results reported in the supplement of paper PMC9170038.

Test system: K4 kissing-loop RNA reporter
Assay: apparent KD of K4 kissing-loop reporter; higher = weaker reporter binding
Settings: Eterna round: R107
Method: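 RNA-MaP round R107: designed RNA switches with theophylline, tryptophan, arginine or FMN aptamers are transcribed on-chip within common flanks. They are titrated with a labelled K4 kissing-loop RNA reporter in RNA-MaP buffer (100 mM Tris pH 7.5, 80 mM KCl, 4 mM MgCl2), without ligand or with the indicated ligand. Median apparent KD per design.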

[1] = input ligand: theophylline 20 uM
[2] = input ligand: tryptophan 2.4 mM
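Further: bound reporter read as fluorescence of individual clusters on recovered sequencing chips by microscopy, with normalized cluster intensities fitted with a binding model.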

Sequence	apparent KD of K4 kissing-loop reporter (input ligand: FMN 200 uM)	apparent KD of K4 kissing-loop reporter (input ligand: arginine 13.2 mM)	apparent KD of K4 kissing-loop reporter (input ligand: none)	apparent KD of K4 kissing-loop reporter [1]	apparent KD of K4 kissing-loop reporter [2]
CCAGGUGGAAAAGGAUAUCUAGGAGUGAUGUUCCAUAUGAAAUUAGUUUAUCACCAAACGUCGACCAGAGAAGGUUUCCCAAUUU [theeternabot_exclusion_KL_FMN_B_31]	0.246 µM	0.252 µM	0.287 µM	0.489 µM	0.254 µM
CCAUAUUCGUCGGCCGCCACUAUAAGCCAUCAUACAUUGGCUCUGUGAAAGUGAUGUUUUCUUGAUAGGACCGGGACUGUCAGCA [theeternabot_sameState_KL_Trp_B_24]	0.975 µM	0.739 µM	1.02 µM	0.903 µM	0.646 µM
CCAUCGCUAUUCGAUACCAGCCAAGAGGUCUUUGGCCUCUUAUUGGAGUGAUGUUCCAUUGGCCCUUGGCAGCGAAUAGUGAUGG [Theophylline B K4 17]	0.356 µM	0.192 µM	0.343 µM	0.541 µM	0.275 µM
CCAUCGCUAUUCGAUACCAGCUACUUAGUGAUGUUAAGUUAAAAUCCACUGUAGGUGGAAAGCCCUUGGCAGCGAAUAGUGAUGG [Theophylline B K4 23]	0.235 µM	0.189 µM	0.205 µM	0.117 µM	0.203 µM
CCAUCGCUAUUCGAUACCAGCUACUUAGUGAUGUUAAGUUAAAAUUAAUUGUAGAUUAAAAGCCCUUGGCAGCGAAUAGUGAUGG [Theophylline B K4 20]	0.159 µM	0.141 µM	0.154 µM	0.119 µM	0.152 µM
CCAUCGCUAUUCGAUACCAGCUCCUUAGUGAUGUUGAGGUUUUACCCACUGUAGGUGGGAAGCCCUUGGCAGCGAAUAGUGAUGG [Theophylline B K4 29]	0.523 µM	0.217 µM	0.43 µM	0.48 µM	0.816 µM
CCAUCGCUAUUCGAUACCAGUCAAUAGGUCUUUGGCCUAUUAAUGGAGUGAUGUUCCUUAGACCCUUGGCAGCGAAUAGUGAUGG [Theophylline B K4 12]	0.258 µM	0.215 µM	0.26 µM	0.166 µM	0.241 µM
CCAUCGCUAUUCGAUACCAGUCAGGAGGUCUAUGACCUCCUAAUGGAGUGAUGUUCCUUAGACCCUUGGCAGCGAAUAGUGAUGG [#01 K4 Theophylline B Same State]	0.509 µM	0.48 µM	0.569 µM	0.338 µM	0.534 µM
CCAUCGCUAUUCGAUACCAGUCAUUUUUUAUUUUAUUUUUUUUUUGGAGUGAUGUUCCAAGACCCUUGGCAGCGGAUAGUGAUGG [whbob_SS_Theo_B_th79]	0.117 µM	0.15 µM	0.117 µM	0.158 µM	0.109 µM
CCAUCGCUAUUCGAUACCAGUCUUCGUAGGAAACUACGUCUGCAAAGGAGUGAUGUUCCAGACCCUUGGCAGCGAAUAGUGAUGG [Theophylline B K4 4]	0.771 µM	0.553 µM	1.11 µM	0.444 µM	0.799 µM
CCAUUCAUUUACGAUACCAGUCUAAUAUAUUUGAUCAAAACCCUCGCCGAGUGAUGUUCGGACCCUUGGCAGCGUCUGGGACAGG [eesetmullin]	0.477 µM	0.325 µM	0.503 µM	0.403 µM	0.414 µM
CCAUUCUUUUACGAUACCAGUUUAAUUUAUUUAUUCAUAACCCUUGCCGAGUGAUGUUCGGACCCUUGGCAGCGUUUGCGAGAGG [vvuvmullin]	0.331 µM	0.314 µM	0.463 µM	0.485 µM	0.358 µM
CCCAAGGGCGAACCGGUAUGAUCACCGGAUACCAGAGGCGAAAGCCUCCCUUGGCAGCCGGUUGUAGUGAUGUUACACUGGUUCU	0.0914 µM	0.0746 µM	0.0887 µM	0.118 µM	0.0877 µM
CCCAGUGAUGUUGGGAGUAGCCACAGGGAAGGAGCGUGCUAGAGCACAGGUAGGUCGCCCACUGGGUCAGUGAUGUUGGUCGGGU [Same State Arginine A GF 28]	0.275 µM	0.178 µM	0.186 µM	0.361 µM	0.208 µM
CCCUCACGAGUGAUGUUCGUAGGGUACAGUCAGGAUAUCAUGCGGUUGAGAAGGGACAGAGAGGGCGGCCACGGGUUGCUCAUCU [Tiongequ]	0.187 µM	0.288 µM	0.372 µM	0.435 µM	0.39 µM
CCCUCACGAGUGAUGUUCGUAGGGUACAGUCAGGAUAUCAUGCGGUUGAGAAGGGACAGAGAGGGCGGCGGCGGGUUGCUCUUCG [Xeaan]	0.155 µM	0.19 µM	0.242 µM	0.271 µM	0.222 µM
CCCUUGGUAUAUCGGUAUGUAUAAGCGGAUACCAGCCAGGACAACGGCCCUUGGCAGCCGGGCAGGCAGAGUGAUGUUCAUGCUA [theeternabot_exclusion_KL_Theo_A_22]	0.385 µM	0.368 µM	0.516 µM	0.535 µM	0.346 µM
CCGAAGAACCAGUGAUGUUGGUUGACUAGACAGGAUAUGAGCAACAUCAGAAGGGUCUGGCUUCGGGAGUGGGUCGCGCUGACCU [Geeredin]	0.276 µM	0.136 µM	0.845 µM	0.371 µM	0.206 µM
CCGAGUAGCUCCGAUACCAGCACAAUCGUUCAAUGAUCCAUGCGCAAGUGAUGUUUGCGUUGCCCUUGGCAGCGGGCAAAAGCUU [theeternabot_sameState_KL_Theo_B_2]	0.0613 µM	0.09 µM	0.0724 µM	0.0866 µM	0.0786 µM
CCGCCAUCAUCAGAUACCAGGCUGAUGGCGGUAACCGCCAAGCGAGUGAUGUUCGCAUCAGUCCCUUGGCAGCUGAUGAAGACUG [#15 K4 Theophylline B Same State]	0.194 µM	0.0943 µM	0.146 µM	0.155 µM	0.0952 µM
CCGCUGUAGUGCAUUAAGUGAUGUUUAGUGCAGGAUAUCUGGAAACAGAGAAGGGCACGUACUCGACGAGGCCAAUACAGCGGUU	0.319 µM	0.29 µM	0.335 µM	0.31 µM	0.358 µM
CCUAUCUCAUACGAUACCAGUCAACGAUAUUUUAUCGAUGCCAUCACCGAGUGAUGUUCGGACCCUUGGCAGCGUAUGGGAUAGG [Ex Theophylline B K4 4]	0.248 µM	0.244 µM	0.27 µM	0.445 µM	0.251 µM

Sequence	apparent KD of K4 kissing-loop reporter (input ligand: FMN 200 uM)	apparent KD of K4 kissing-loop reporter (input ligand: arginine 13.2 mM)	apparent KD of K4 kissing-loop reporter (input ligand: none)	apparent KD of K4 kissing-loop reporter [1]	apparent KD of K4 kissing-loop reporter [2]
CCUAUCUCAUACGAUACCAGUCGUCGAGUGAUGUUCGAUUAAAUAAAUUUGCCAAAUAACGACCCUUGGCAGCGUAUGGGAUAGG [Ex Theophylline B K4 16]	0.273 µM	0.295 µM	0.318 µM	0.334 µM	0.326 µM
CCUAUCUCAUACGAUACCAGUCUAUUAAAACGAGUGAUGUUCGAAAAUUUGCCAUAUAAUGACCCUUGGCAGCGUAUGGGAUAGG [Ex Theophylline B K4 8]	0.201 µM	0.185 µM	0.203 µM	0.211 µM	0.176 µM
CCUAUCUCAUACGAUACCAGUGAAUAACCAGUGAUGUUGGAAUAACCAAGGAAUAUUUUUCACCCUUGGCAGCGUAUGGGAUAGG [Ex Theophylline B K4 27]	0.492 µM	0.285 µM	0.378 µM	0.385 µM	0.312 µM
CCUAUCUCAUACGAUACCAGUGAAUUUAUAUUUAUAAGCAGUGAUGUUGCAUUCCAAGUACACCCUUGGCAGCGUAUGGGAUAGG [Ex Theophylline B K4 21]	0.197 µM	0.203 µM	0.213 µM	0.168 µM	0.161 µM
CCUAUCUCAUACGAUACCAGUGAAUUUAUGUUUAUUAGCAGUGAUGUUGCAUUCCAAGUACACCCUUGGCAGCGUAUGGGAUAGG [Ex Theophylline B K4 23]	0.178 µM	0.201 µM	0.205 µM	0.193 µM	0.151 µM
CCUGAAUCAGUGAGUGAUGUUCACGUCGAUACCAGCUAGGAUACUAGCCCUUGGCAGCGACAAUUGCCAAGUGUGGCUAGUCAAA [Theo B SS t8]	0.14 µM	0.134 µM	0.16 µM	0.148 µM	0.147 µM
CCUGAGUGAUGUUUAGGAGGCCCGAUAGAUACCAGAAAUACUGCGUUCCCUUGGCAGCUACGCGGACGGAAGACUACGUUACACG [theeternabot_exclusion_KL_Theo_A_16]	0.39 µM	0.222 µM	0.324 µM	0.379 µM	0.325 µM
CCUGCAGCUGUAACCGAGUGAUGAUACGGACGAGGACCGGUACGGCCGCCACUCGCCAGUGAUGUUGGUGUGGGAGGACGUAACU [KL-XTryp-A23]	0.241 µM	0.177 µM	0.237 µM	0.256 µM	0.221 µM
CCUUCCACAGAAGGAUAUCGGAGUGAUGUUCCCAAGCAGACCUCAAAGUGGGUAGCCAGUCAGUUCCGAGAAGGUCUGCAGCGAG [theeternabot_exclusion_KL_FMN_B_26]	0.25 µM	0.28 µM	0.271 µM	0.37 µM	0.189 µM
CCUUCUCUUGAUAGUGAUGUUAUCAAGGACAAGGAUAUCAUCUCAAUGAGAAGGUGUCCUUGAUAACAUGGAGGUCUGAAACAGA [Omei KL FMN A Exc C v3]	0.148 µM	0.249 µM	0.287 µM	0.407 µM	0.385 µM
CCUUCUCUUGAUAGUGAUGUUAUCAAGGGCAAGGAUAUCAUUUUAAUGAGAAGGUGUCCUUGAUAACAUGGAGGUCUGAAACAGA [Omei KL FMN A Exc C v6]	0.151 µM	0.0866 µM	0.114 µM	0.169 µM	0.0955 µM
CGAACACCCUCGGCCGCCACUAGCCGUAGCCUGCGCUUGCGGAGUGAUGUUCUGAAGCAGGAUGUUAGGACCGGGAGCUACAUCC [theeternabot_sameState_KL_Trp_B_33]	0.527 µM	0.542 µM	0.446 µM	0.428 µM	0.371 µM
CGACCGGUAGCGGAUACCAGCCUUUGAGUGAUGUUCGAGUUGAGUUUCCGCGCGUCGAAAGGCCCUUGGCAGCCGAUACGCCUUC [theeternabot_exclusion_KL_Theo_B_14]	0.236 µM	0.192 µM	0.207 µM	0.187 µM	0.188 µM
CGAGAGGUCUUGUUUGGAUGUGUUUUAUGGCGAGGACCGGUACGGCCGCCACUCGGGUGAUGUUAGUGAUGUUGAUGUAGUGAUG [dcdmullin]	0.0919 µM	0.0799 µM	0.0934 µM	0.162 µM	0.0769 µM
CGAGUCGGUUCAGAUACCAGCCAAUUAAAGUCGAGUGAUGUUCGACAAUGAACGUCCAAAGGCCCUUGGCAGCUGAAUUGGGAAC [Same State Theophylline B GF 19]	0.216 µM	0.107 µM	0.191 µM	0.25 µM	0.122 µM
CGAGUGAUGUUCGUUCGUAUAUUUGGGUGACAGGAUAUGCGGAAACGCAGAAGGGUCACCUUCGGGUUACCCGAAUUGGCGUUAU [Model 1]	0.372 µM	0.275 µM	0.427 µM	0.322 µM	0.297 µM
CGAGUGAUGUUCGUUCGUUUAUUUCGUUGACAGGAUAUGCGGAAACGCAGAAGGGUCACCUUUGAGUUAACGGAAUUAACGUUAU [Ex FMN A 28]	0.561 µM	0.452 µM	0.544 µM	0.49 µM	0.456 µM
CGAGUGAUGUUCGUUCGUUUAUUUUUUUGACAGGAUAUGCGGAAACGCAGAAGGGUCACCUUUGAGUUAAAAGAAUUUACGUUAU [Ex FMN A 25]	0.46 µM	0.475 µM	0.576 µM	0.465 µM	0.414 µM
CGAGUGAUGUUCGUUCUUUUAUUUUUUUGACAGGAUAUGCGGAAACGCAGAAGGGUCACCUUUGAGUUAAAAGAAUUUAAGUUAU [Ex FMN A 24]	0.309 µM	0.284 µM	0.353 µM	0.287 µM	0.235 µM
CGAUACGGAAAUACGUGUCUCUAUUCAGAAGGAGCGUGUUUGUACACAGGUAGGUCGCUGAAAUUUAAACUAGUGAUGUUAGACU [JR_SSArginiA_Sub003]	1.16 µM	0.816 µM	1.16 µM	0.895 µM	0.929 µM
CGAUCUUGGUCGGCCGCCACUACACCCACACCAAAUAGGAAAGUAGCGAGUGAUGUUUGUGACGUUAGGACCGGGACCACUGGUC [theeternabot_sameState_KL_Trp_B_25]	0.586 µM	0.321 µM	0.526 µM	0.564 µM	0.392 µM
